Assay results published in a protein production outcome set (Wang et al. 2014).

Assay: label from the status in PepcDB records
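Further: failed if final PepcDB status was selected cloned or expressed and not failed if soluble or beyond.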

Sequence | protein production
MEGYRLLYPMRTYLIVSGHGEETNVMAADWVTVVSFDPFIVGVAVAPKRTTHKLIKKYGEFVISVPSLDVLRDVWIAGTKKGPSKLKEMSVTLIPSKKVKVPSIEEALANIECRVIDARSYGDHTFFVGEVVGYTYKDYAFEKGKPNLKAKFLAHVSWSEFVTFSEKVHKAE | not failed
MEHICGTSRIAGFRFSLYPMTDDFISVIKSALKKTDTSKVWTKTDHISTVLRGSIDHVFDAAKAIYLHAANSEQHIVMNGTFSIGCPGDTQGDTYLSKGDKRVNEDAVRGLKAEAPCQFALYPMNEPDYMGLIMEAVDIAKAQGTFVQGVHYASELDGDAHDVFSTLEAVFRMAEQQTNHITMTVNLSANSPSRKNRKQG | not failed
MEHKISEPNARVDVADVLRGLAVMGIIILHSIEHFNFYSFPDTVPCEWMKFTDKAIWNGLFFVFSNKAYAIFALLFGFSFYIQDNNQQRRGKDFRLRFIWRMALLFIIGQFNAAFFTGEILTMYAMLGLILPLSCRLSDRSIAIFATLLIIQPIDWCKVIYALCNPDYVAGPGLASHYFGIAFDVQKNGTFLETIRMNLWEGQLANLTWALEHGRILQTPALFLFGMLVGRKGLFLYSEQNEQHWLKALGISLICFFPLYGLNNMLPEFITRNAIRVPLQLIISSLSNLSFMVLLVSGLLITFYRIKDRRFLMRFTSYGKMSLTNYIGQSVIGSLLFYHWGFELGRFLGITYSFFFGILFVLLQMAFCSWWLSHFKHGPFEGLWKRLTWIGNNKRK | failed
MEHREKCTRCGQCLEVCSRYEDLGVLDRLYGYLDGSSNIDSESLLRCLTCGLCISACPENLGIKPLISPSRQKWINENGLSERLEHHHHHH | failed
MEHTWMMKYFAEFFGTIILVVFGNGAVANSVLTKTGGNSHDGQANGGWLLIAFSFGFGVMLPAMMFGSISGNHLNPAVTLAQACAGAFPWNQVLPYILVQMLGAIVGQLLLVAVYWPFIAKTSSDDAVFASFSTGDIADSKLNGFITEFVGTAILLFVAVGLYRGMFFKQSEDIANIGVGFLITALVMAVGGPTGPALNPARDLGPRIVYALCPLPHKGSAHWDYGWIPVVAPIAGGICGALLYKLAFGL | failed
MEICSMSQPSSDQSVASFESKSLNILGEHIPVSELAGCEECDTVYRKVKLAAGERAYCVCCGAELYRKTRSLTSLLALVVTALIIFAIANSFPIVKVELQGNTSQTTLLGAAWTMFQIDRALVGILILFTTFIVPLLDLLLLTYILSSVGIFKQRPPYLRLALRILFLFRVWGMVEVFLIGVLVTLVKLVGMVVVIPGVALWAFAILSLLLVYIASVKIKDIWDEVDRCVP | failed
MEIFELILLMLSAVFLSNVLSRFLPSIAVPLIQVVLGIILAIPLGDHTMDLNPELFLLLFMAPILFNDGASTDKKSLWKNRKAILSLSIGLVFVTVGVLGAFIHYLIPAIPFAAAFALAAALAPTDAVAVGALAEKVRVPHKIMHILEGESLINDASGLVSFQFAVLALVTGTFSFMSAGTSFLLLSLGGIALGAILSLLKIMLMRGLRQLGIENMTSFMLMEILLPFLIFMVAEKVGVNGILAVVSGGMVHSFSYKGLNPEIAQLNLLSKNTWSVIIFSLNGLVFILLGTQLPQILMTIWQDANIQKGMLFVYIIGITFLLLGLRFLWILFFRNYEENPKVDLVSRLKNTFLYTVAGVRGTITLVSALSLPFVLGNGNAFPERDLLIFIAAGVIITTLLLANFTLPLFADKKDKVTADHTTDIVLLRDIVQQLQAYKTDENAVEMNKVLNMYNNRIFSLMEHKEVNATEKELRRLTQEWQLENTRRLVFERKIDTGVGLSHMMRLGKRLYVQTRAEKYRARMRYRQLLSHRFRDFRFVPLTFEERRKEIAKLQNENNLFVMQKLQDLDSNEYNPEIISLYLMNFERALGRGKNKKESNDEALQTTIDLASQIERETIQRYFEKGTITRKEMKVYRDNLLAIEANMQLEF | failed
MEIILLIIAAVVLFYFYNTLKEYLKNPLNPKTKTEEYDLKNDPYLLAQSSPLDKFKQTQTGAYMRLLKFLDIQKNALDNALRTLFIHELEQPLNSEQQNLAKELLNEPVDKKENFESLCQEIADHTHGEYTKRLKLVEFLMLLAYADGILDSKEKELFLDVGVFLQIDNQDFNELYDNFERFNAIEIPMSLEEAKSLFEIQTHTTKQDLEKKALDLSAPYYHKMNDNKRYSEQDFISLKKIAIASQLLENDLKDS | failed
MEIKNIKEFEKASKKLQKDTLKIALALLFLIGAALLALIFGQANSKGLLLIFAAVIGGYMAMNIGANDVSNNVGPAVGSKAISMGGAILIAAICEMLGAIIAGGEVVSTIKGRIVSPEFINDAHIFINVMLASLLSGALWLHVATLIGAPVSTSHSVVGGIMGAGMAAAGMVAVNWHFLSGIVASWVISPLMGALIAMFFLMLIKKTIAYKEDKKSAALKVVPYLVALMSLTFSWYLIVKVLKRLYALNFEIQLACGCILALLIFILFKRFVLKKAPQLENSHESINELFNVPLIFAAALLSFAHGANDVANAIGPLAAISQTLEDANSPIGNTLSSVPLWIMVVGAAGIALGLSLYGPKLIKTVGSEITELDKMQAFCIALSAVITVLLASQLGLPVSSTHIVVGAVFGVGFLRERLREQSRRRFARIRDNIVAAHFGEDLEEIEGFLERFDKANLKEKSLMLESLKKSKNTAIALELKKKEKKSLKKVYKEEVIKRSILKKIVTAWLVTVPVSALLGALLFVALGFIEKYF | failed
MEIKRFGRIREVIPLPPLTEIQVESYRRALQADVPPEKRENVGIQAAFRETFPIEEEDKGKGGLVLDFLEYRLGEPPFPQDECREKDLTYQAPLYARLQLIHKDTGLIKEDEVFLGHIPLMTEDGSFIINGADRVIVSQIHRSPGVYFTPDPARPGRYIASIIPLPKRGPWIDLEVEPNGVVSMKVNKRKFPLVLLLRVLGYDQETLARELGAYGELVQGLMDESVFAMRPEEALIRLFTLLRPGDPPKRDKAVAYVYGLIADPRRYDLGEAGRYKAEEKLGIRLSGRTLARFEDGEFKDEVFLPTLRYLFALTAGVPGHEVDDIDHLGNRRIRTVGELMTDQFRVGLARLARGVRERMLMGSEDSLTPAKLVNSRPLEAAIREFFSRSQLSQFKDETNPLSSLRHKRRISALGPGGLTRERAGFDVRDVHRTHYGRICPVETPEGANIGLITSLAAYARVDELGFIRTPYRRVVGGVVTDEVVYMTATEEDRYTIAQANTPLEGNRIAAERVVARRKGEPVIVSPEEVEFMDVSPKQVFSVNTNLIPFLEHDDANRALMGSNMQTQAVPLIRAQAPVVMTGLEERVVRDSLAALYAEEDGEVAKVDGNRIVVRYEDGRLVEYPLRRFYRSNQGTALDQRPRVVVGQRVRKGDLLADGPASENGFLALGQNVLVAIMPFDGYNFEDAIVISEELLKRDFYTSIHIERYEIEARDTKLGPERITRDIPHLSEAALRDLDEEGVVRIGAEVKPGDILVGRTSFKGESEPTPEERLLRSIFGEKARDVKDTSLRVPPGEGGIVVRTVRLRRGDPGVELKPGVREVVRVYVAQKRKLQVGDKLANRHGNKGVVAKILPVEDMPHLPDGTPVDVILNPLGVPSRMNLGQILETHLGLAGYFLGQRYISPIFDGAKEPEIKELLAQAFEVYFGKRKGEGFGVDKREVEVLRRAEKLGLVTPGKTPEEQLKELFLQGKVVLYDGRTGEPIEGPIVVGQMFIMKLYHMVEDKMHARSTGPYSLITQQPLGGKAQFGGQRFGEMEVWALEAYGAAHTLQEMLTLKSDDIEGRNAAYEAIIKGEDVPEPSVPESFRVLVKELQALALDVQTLDEKDNPVDIFEGLASKR | not failed
MEIKSILIANRGEIALRALRTIKEMGKKAICVYSEADKDALYLKYADASICIGKARSSESYLNIPAIIAAAEIAEADAIFPGYGFLSENQNFVEICAKHNIKFIGPSVEAMNLMSDKSKAKQVMQRAGVPVIPGSDGALAGAEAAKKLAKEIGYPVILKAAAGGGGRGMRVVENEKDLEKAYWSAESEAMTAFGDGTMYMEKYIQNPRHIEVQVIGDSFGNVIHVGERDCSMQRRHQKLIEESPAILLDEKTRTRLHETAIKAAKAIGYEGAGTFEFLVDKNLDFYFIEMNTRLQVEHCVSEMVSGIDIIEQMIKVAEGYALPSQESIKLNGHSIECRITAEDSKTFLPSPGKITKYIPPAGRNVRMESHCYQDYSVPAYYDSMIGKLVVWAEDRNKAIAKMKVALDELLISGIKTTKDFHLSMMENPDFINNNYDTNYLARH | not failed
MEISLLQAFALGIIAFIAGLDMFNGLTHMHRPVVLGPLVGLVLGDLHTGILTGDTLELVWMGLAPLAGAQPPNVIIGTIVGTAFAITTGVKPDVAVGVAVPFAVAVQMGITFLFSVMSGVMSRCDRMAENADTRGIERVNYLALLALGTFYFLCAFLPIYFGAEHAKTIIDVLPQRLIDGLGVAGGIMPAIGFAVLLKIMMKNVYIPYFILGFVAATWLKLPVLAIAAAALAMALIDLLRKSPEPTQPAAQKEEFEDGI | failed
MEISRGDFEQAYQNERNRMQAQLGDYFSNLLADPTYVASFRKSVLDRMVNDLLLEQHAASLGLRVSDEQVRQLILEIPQFQSQGVFDSTAYQATLRRAGFTPEMYAEYLRKDLVRNQLMSALQGSEFSLAGEVNLQDQLISQTRDIRTITLSLEDFAKKVTLSDEEIDQYYKTNTERFTRPEQVKVSYVELSADGLKAQVSVDDAAAQQYYQEHLDKYSTAEQRNVSHILIEGNDEQKAQAILDELNAGADFATLAKEKSQDLGSAAEGGSLGWIEPDTMDPAFEAAAFALTEKGQVSGLVKSDFGYHIIRLDDIKAPVVKPYSEVEQAIKQELIDQQALDSFYAKQSELEKMAFEHSDSLDEAAKAISATVVHTDFISAEQAPEVLTTPAVLQALKSPEVKEDGLNSEVIEVAPEHVVVVRVEEFRPETVLPLDEVKSQVVEQLSRMKGEQQALELGNQLVTALKAGETDLLAQKGVSFGELQMIDRSSPLANTVYAMVKPQEGEKVYAQAKDFDGNIVVIELSKVESKLTPAYHEQIATQLERIGSQQDLAGVISVLRQNTDIEYHIATELEHHHHHH | not failed
MEITDPGDFRQRIETSFARQGVVQAINAEISRIEHRLVEIELPFHEKLTQQHGILHAGVIAAGLDTACTYAAYTIIEPEASLLTIEFKVNLMSPGRGERFLFRGEIIKPGNNLIVADGRAYALSDGPAKLIASMTGTMMVVKGLEHHHHHH | not failed
MEKANIGFKAGIIFEKLGETGLITIAELARRLNFAADETALAAGWLARENKIYIERRNGLLYIRKELEHHHHHH | failed
MEKAVHSSTTSGPAVPGETTKTGTSIIDTAASAVQSFAPVNQIHQHLCAFHFYADDMARQVEAHHFCSHVNEEMRQCLIYDGPDANARLIGLEYIVSEKLFMTLPDEEKKLWHSHEWEVKGGFLFMPGVPGAIQRKDLDKVAKTYGKVFHFWQVDLGHELPIGLPNVMMAVTRDGQLFHEMIQEAEKRFGVSVEGERDSRAYMSGPELGIHPLANGGGKGMKLELREVDIKPVESVGSVFV | failed
MEKHSHEHHHHHDISSISKNKLFFVIIFNFIIALAEVIGGSISGSLSLISDALHNLSDTASLILSYVSIKISEKPKNKAKTYGYKRANILAAFINSAALIGISIFLGVQALEKLTSLKKINANIVIVVALIGLLGNFLSVIILKKGAEKSLNVRSSYLHMLSDAMASLAVIISGVFIKYFAIYWIDSVLTIFINMLILKSSYNILKESINILMQTTPVNLDMDDVKEQLLKIKEIKGVHHFHIWTLDENNIVLEGHIEIDDILVSETRAISDKIEHILNEDFHITHVVIQFESTSCEDNICKI | failed
MEKIEDQFASLHIVRRSSEPKEPTYLLGIDTSKTVQADKGGLVAVLCSNGSIRIYDKETLHLLREFGGSPGLLSGVSFANSCDSVYSASTDGTVKCWDARGASEKPVQLFKGYPSCSFISFDVNCKDHVICAGAEKVDEDALLVFWDARFTSQDLSTRDPLGAYSETHSDDITQVRFHPSNPNLVVSGSTDGLVNVFDLSADKEEDALVATCNSVSSVSCIGWCGKDYKQIYCMTHDEGFCWWDLNHLDTDEPITCLNIQDVREITDVKDGHLDYLIGGLYHEKMDRLFVIGGTNTGKIHLLSCTSAGLTHVTSLHGGHAATVRSFCWNVSEDSLLTGGEDAQLLLWKPGAMEKTFTKKDSLKIASSVQQRVRVHSSDSYKKRKQQ | failed
